# From patent publication US20230115257A1 (published 2023)
# How the values were obtained:
# [1] = target: SARS-CoV-2 (WIV02 isolate) prefusion stabilized spike trimer protein (UniProt P0DTC2 14-1213); assay: ELISA
# SARS-CoV-1 spike protein = SARS-CoV-1 spike protein (SARS-CoV-1, UniProt P59594 14-1195); assay: ELISA
Binder,IC50 [1] [nM],IC50 (SARS-CoV-1 spike protein) [nM]
"8-H5-A (antibody, V domains shown) VH: QVTLKESGPGILQSSQTLSLTCSLSGFSLSTSGMGVSWVRQPSGKGLEWLAHIYWDDDKRYTPSLKSRLTISTDSSRKQVFLKITSVDTADTATYYCARRDLHDYDGWFAYWGQGTLVTVSA VL: DIVMTQSQKFMSTAVGDRVSVTCKASQNVGTNVAWYQQKPGQSPKALIYSASFRYSGVPDRFSGSGSGTDFTLTISNVQSEDLAEYFCQQYNSYPLTFGSGTKLEIK",12.8,–
"1-B11-A (antibody, V domains shown) VH: QVQLQQSGPELVKPGASVKISCKASGYTFTDHYINWVKQRPGQGLEWIGWIFPGSGSTYYNEQFKGKATLTVDKSSNTAYMLLSSLTSEDSAVYFCARSGGLRLGFAYWGQGTLVTVSA VL: DIQMTQTTSSLSASLGDRVTISCRASQDISNYLNWYQQKPDGTVKLLIYYTSRLHSGVPSRFSGSGSGTDYSLTISNLEQEDISTYFCQQVNTLPYTFGGGTKLEIK",–,20.9
"9-F6-A (antibody, V domains shown) VH: EVQLQQSGPELVKPGASVKMSCKASGYTFTSYIMHWVKQKPGQGLEWIGYILPYNDGTKYNEKFKGKATLTSDKSSSTAYMELRSLTSEDSAVYYCARWGYSNFLDSWGQGTTLTVSS VL: DIQMTQTTSSLSASLGDRVTISCRASQDINNYLNWYQQKPDGTVKLLIYYTSRLHSGVPSRFSGSGSGTDYSLTIRNLEQEDIATYFCQQGNTLPPTFGGGTKLEIK",16.7,5.55
"6-O12-A (antibody, V domains shown) VH: QVQLQQPGTELVKPGASVKLSCKASGYTFTSYWMHWVKQRPGQGLEWIGNINPSNGGTNYNEKFRSKATLTVDKSSSTAYMQLSSLTSEDSAVYYCARLGWFLPLGSWGQGTTLTVSS VL: QIVLTQSPAIMSASLGEVITLTCSASSSVSYMHWYQQKSGTSPKLLIYSTSNLASGVPSRFSGSGSGTFYSLTISSVEAEDAADYYCHQWSGYMYTFGGGTKLEIK",7.62,5.4
"2-G20-A (antibody, V domains shown) VH: EVQLQQSGPELVKPGASVKMSCKASGYTFPSYVLHWVKQKPGQGLEWIGYIYPYNDGTNYNEKFKGKATLTSDKSSSTAYMELSSLTSEDSAVYYCARGDYGDSAWFPYWGQGTLVTVSA VL: DIVLTQSPASLAVSLGQRATISCRASKSVSTSGYSYMHWYQQKPGQPPKLLIYLASNLKSGVPARFSGGGSGTDFTLNIHPVEEEDAATYYCQLSRELPWTFGGGTKLEIK",18.3,6.65
"2-H7-A (antibody, V domains shown) VH: QAYLQQSGAELVRPGASVKMSCKASGYTFTGYTMHWVKQTPRQGLEWIGAIYPENGDTSYNQKFKGKATLTVDKSSSTAYMQLSSLTSEDSAVYFCARDGYDVLYGMDYWGQGTSVTVSS VL: DIVLTQSPASLAVSLGQRATISCRASKSVSTSGYSYMHWYQQKPGQPPKLLIYLASNLESGVPARFSGSGSGTDFTLNIHPVEEEDAATYYCQHSRELPWTFGGGTKLDIK",7.21,–
"4-L4-A (antibody, V domains shown) VH: QAYLQQSGAELVRPGASVKMSCKASGYTFTSYTVHWVKQTPRQGLEWIGGIYPGNVDTSYNQNFKGKATLTVDKSSSTAYMQLSSLTSEDSAVYFCARDGYYAMDYWGQGTSVTVSS VL: not shown",8.34,–
"4-M3-A (antibody, V domains shown) VH: EVQLQQSGPELVKPGDSVKISCKASGYSFTGYFMNWVMQSHGKSLEWIGRINPNNGETFYNQKFKGKATLTVDKSSDTAHMELRSLTSEDSAVYYCARGGTGTGWGQGTTLTVSS VL: DILMTQSPSSMSVSLGDTVSITCHASQGISSNIGWLQQKPGKSFKGLIYYGTNLEDGVPSRFSGSGSGADYSLTISSLESEDLADYYCIQYAQFPYTFGGGTKLEIK",7.36,–
"4-N22-A (antibody, V domains shown) VH: QVQLQQPGTELVKPGASVKLSCKASGYTFTNYWMYWVKQRPGQGLDWIGNINPSNGGTNYNEKFKSKATLTVDKSSSTAYMQLSSLTSEDSAVYYCARETGNYWGQGTTLTVSS VL: DILMTQSPSSMSVSLGDTVSISCHASQGISSNIGWLQQKPGKSFKGLIYHGTNLEDGVPSRFSGSGSGADYSLTISSLESEDFADYYCVQYAQFPYTFGGGTKLEIK",4.93,–
"8-L17-A (antibody, V domains shown) VH: EVQLVESGGGLVQPKGSLKLSCAASGFTFNTYAMHWVRQAPGKGLEWVARIRSKSSNYARYYADSVKDRFTISRDDSQSMLYLQMNNLKTEDTAMYYCVRDHDYYGSSYWFAYWGQGTLVTVSA VL: DVVMTQTPLSLPVSLGDQASISCRSSQSLVHNNGNTYLHWYLQKPGQSPKLLIYKVSNRFSGVPDRFSGSGSGTDFTLKISRVEAEDLGVYFCSQSTHVPWTFGGGTKLEIK",60.8,–
"8-H3-A (antibody, V domains shown) VH: EVQLVESGGGLVQPKGSLKLSCAASGFTFNTYAMHWVRQAPGKGLEWVARIRSKSSNYATYYADSVKDRFTISRDDSQSMLYLQMNNLKTEDTAMYYCVRDHDYYGSSYWFTYWGQGTLVTVSA VL: DVVMTQTPLSLPVSLGDQASISCRSSQSLVHDNGNTYLHWFLQKPGQSPKLLIYKVSNRFSGVPDRFSGSGSGTDFTLKISRVETEDLGVYFCSQSTHVPWTFGGGTKLEIK",19.4,–
"2-P2-A (antibody, V domains shown) VH: EVQLQQSGAELVRPGSSVKMSCKTSGYTFTSYGINWVKQRPGQGLEWIGYIYIGNGYTEYNEKFKGKATLTSDTSSSTAYMQLSSLTSEDSAIYFCARGGVDYWGQGTTLTVSS VL: DVLMTQTPLSLPVSLGDQASISCRSSQSIVHSNGNTYLEWYLQKPGQSPKLLIYKVSNRFSGVPDRFSGSGSGTDFTLKISRVEAEDLGVYYCFQGSHVPYTFGGGTKLEIK",–,17.9
"8-A17-A (antibody, V domains shown) VH: QVQLKESGPGLVAPSQSLSITCTVSGFSLTSYAISWVRQPPGKGLEWLGVVWPGGGTNYNSALKSRLSINKDNSKSQVFLKMNSLQTDDTGRYYCARTGYHFDYWGQGTTLTVSS VL: QIVLTQSPAIMSASPGEKVTMTCSVSSSVSYMHWYQQKSGTSPKRWIYDTSKLASGVPARFSGSGSGTSYSLTISSMEAEDAATYYCQQWSSNPPMYTFGGGTKLEIK",–,5.1
"3-E2-A (antibody, V domains shown) VH: EVQLQQSGPELVKPGASVKISCKASGYTFTDYYMNWVKQSHGKSLEWIGDINPNNGGTSYTQKFKGKATLTVDKSSSKAYMELRSLTSEDSAVYYCARRGDGHYGGFTYWGQGTLVTVSA VL: not shown",18.4,–
"2-O12-A (antibody, V domains shown) VH: EVQLQQSGPELVKPGASVKISCKASGYTFTDYYMNWVKQSHGKSLEWIGDINSNNGGTTYDQKFKGKATLTVDRSSSTAYMELRSLTSEDSAVYYCARRGDGHFGGFTYWGQGTLVTVSA VL: not shown",14.9,–
"1-L10-A (antibody, V domains shown) VH: EVKLEESGGGLVQPGGSMKLSCVASGFTFNNYWMNWVRQSPEKGLEWVAQMRLKSDNYATHYAESVKGRFTISRDDSKSSVYLQMNNLRAEDTGIYYCIEGYWTYWGQGTLVTVSA VL: QIVLTQSPAIMSASLGERVTMTCTASSSVSSSYLHWYQQKPGSSPKLWIYSTSNLASGVPARFSGNGSGTSYSLTISSMEAEDAATYYCLQYHRSPPYTFGGGTKLEIK",8.65,7.5
